Assay results as given in the supplement of paper PMC7125110.
± gives the standard error. This sample holds only a part of the variants without activity.

B1: glmS ribozyme (parent)
chain: AUAAAAGCGCCAGAACUACAGAAAUGUAGUUGACGAGGAGGAGGUUUAUCGAAUUUUCGGCGGAUGCCUCCAAA

What was measured:
Conditions in all cases: with glucosamine-6-phosphate
[1] = variants of: B1; assay: self-cleavage kobs at 40 uM GlcN6P; higher = faster cleavage; RNA array
In short: (§1)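 Tracking of barcoded ribozyme variants used a hybridised Cy3 probe at 37 °C, after in situ transcription by E. coli RNA polymerase on sequenced MiSeq chips. The flowed solution held 40 μM to 10 mM glucosamine-6-phosphate in HEPES/KCl/Mg(OAc)2 buffer, and imaging ran over ~14 h. kobs was taken from exponential decay fits of normalised per-tile medians, and kcat and KM from weighted Michaelis–Menten fits.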

[2] = variants of: B1; assay: self-cleavage kobs at 160 uM GlcN6P; higher = faster cleavage; RNA array
In short: as §1

[3] = variants of: B1; assay: self-cleavage kobs at 640 uM GlcN6P; higher = faster cleavage; RNA array
In short: as §1

[4] = variants of: B1; assay: self-cleavage kobs at 2500 uM GlcN6P; higher = faster cleavage; RNA array
In short: as §1

[5] = variants of: B1; assay: self-cleavage kobs at 10000 uM GlcN6P; higher = faster cleavage; RNA array
In short: as §1

| Variant | self-cleavage kobs at 40 uM GlcN6P [1] [s⁻¹] | self-cleavage kobs at 160 uM GlcN6P [2] [s⁻¹] | self-cleavage kobs at 640 uM GlcN6P [3] [s⁻¹] | self-cleavage kobs at 2500 uM GlcN6P [4] [s⁻¹] | self-cleavage kobs at 10000 uM GlcN6P [5] [s⁻¹] |
| --- | --- | --- | --- | --- | --- |
| C16A A52U G60A C71G | 5.98e-05 ± 2.3e-05 |  |  |  |  |
| G9U A33G | < 1e-05 | < 1e-05 | < 1e-05 | < 1e-05 |  |
| G35U C61U U65G | < 1e-05 |  |  |  |  |
| G41C U47C C68U | < 1e-05 |  | < 1e-05 |  |  |
| A6U G59C C71G | < 1e-05 | < 1e-05 | < 1e-05 | < 1e-05 | < 1e-05 |
| C11U G29C C34A G37U | < 1e-05 |  | < 1e-05 |  |  |
| G7U A39C | < 1e-05 | < 1e-05 | < 1e-05 |  | < 1e-05 |
| G7U A39G | < 1e-05 | < 1e-05 | < 1e-05 | < 1e-05 | < 1e-05 |
| C16G G62U | < 1e-05 | < 1e-05 | < 1e-05 | < 1e-05 | < 1e-05 |
| A6C G43C G63A C71A | < 1e-05 |  |  |  | < 1e-05 |
| A15C U69C | 0.000108 ± 2.5e-05 |  | 0.000226 ± 8.5e-05 | 0.000165 ± 4.4e-05 | 0.00087 ± 0.00022 |
| A12U C16G U56G G59U | < 1e-05 |  |  |  |  |
| G7U C50G C68G | 0.000115 ± 2e-05 | 0.000493 ± 0.00019 |  | 0.000185 ± 6.6e-05 | 0.000186 ± 3.4e-05 |
| G7A G29C | < 1e-05 |  |  | < 1e-05 |  |
| A15G G43U A48C | < 1e-05 |  |  | < 1e-05 |  |
| C8U G44C A52U C61A | < 1e-05 |  |  | < 1e-05 | < 1e-05 |
| U49A C67A U69C | < 1e-05 |  |  |  |  |
| G35C A48G C50A | < 1e-05 |  |  |  |  |
| A28C C34A G62C | < 1e-05 |  |  |  | < 1e-05 |
| G32U G63U | < 1e-05 |  |  | < 1e-05 | < 1e-05 |
| G32A C67G C70U | < 1e-05 |  |  |  |  |
| G44U C58G C68U | < 1e-05 | < 1e-05 | < 1e-05 | < 1e-05 | < 1e-05 |
| C10A A52C | < 1e-05 |  | < 1e-05 | < 1e-05 | < 1e-05 |
